Source: patent US20220185894A1 (F STAR THERAPEUTICS, published 2022)
Several values for one entry are separate records, joined by “and”; a condition that tells them apart may be missing. Equal values may be shown once.

Tests used:
[1] = target: T1, cynomolgus LAG-3 expressed on cells (cynomolgus monkey, UniProt P18627 24-525 (human entry)); assay: flow cytometry on HEK cells expressing cynomolgus LAG-3
T1 construct: also called cLAG-3; cyno LAG-3
T1 chain: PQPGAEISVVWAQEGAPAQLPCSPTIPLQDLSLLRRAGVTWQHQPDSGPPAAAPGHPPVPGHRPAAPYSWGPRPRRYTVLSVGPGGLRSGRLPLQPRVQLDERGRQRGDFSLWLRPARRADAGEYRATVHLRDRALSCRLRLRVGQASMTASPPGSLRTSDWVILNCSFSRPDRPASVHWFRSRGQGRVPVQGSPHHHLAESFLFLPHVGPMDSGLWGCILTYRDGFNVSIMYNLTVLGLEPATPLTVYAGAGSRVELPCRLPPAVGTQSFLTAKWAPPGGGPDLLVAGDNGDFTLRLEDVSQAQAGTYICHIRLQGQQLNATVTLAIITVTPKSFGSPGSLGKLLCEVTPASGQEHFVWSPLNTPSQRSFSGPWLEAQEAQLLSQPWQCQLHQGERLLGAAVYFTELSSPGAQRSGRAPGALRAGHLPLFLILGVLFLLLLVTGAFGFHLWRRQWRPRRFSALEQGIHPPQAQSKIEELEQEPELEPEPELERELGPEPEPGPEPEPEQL
Method: (§1) The affinity of the mAb² (all containing the LALA mutation) for cell expressed human or cynomolgus LAG-3 was determined using flow cytometry. HEK cells expressing human or cynomolgus LAG-3 grown in DMEM (Life Technologies, 61965-026) containing 10% FBS (Life Technologies, 10270-1-6), 100 μg/ml Hygromycin B (Melford Laboratories Ltd, Z2475), 15 μg/ml Blasticidin (Melford Laboratories Ltd, B1105) and 1 μg/ml Doxycyclin (Sigma, D9891) were detached from tissue culture flasks using cell dissociation buffer (Life Technologies, 13151-014) and seeded in V-bottom 96-well plates (Costar, 3897) at 2×10⁵ cells/well. The plates were centrifuged at 1500 rpm for 3 min at 4° C. to pellet the cells. A dilution series of the mAb² (or control mAb) were incubated with the cells in a 100 μl volume for 1 h at 4° C. The plates were washed and secondary antibody (Anti-human Fc-488, Jackson ImmunoResearch, 109-546-098) was diluted 1:1000 in PBS and 100 μl was added to the cells for 30 min at 4° C. (plates were kept in the dark). The plates were washed and then cells were resuspended in 100 μl PBS containing 1 μg/ml DAPI (Biotium, 40043). The plates were read using Canto II flow cytometer (BD Bioscience). Dead cells were excluded and the fluorescence in the FITC channel (488 nm/530/30) was measured. The data was fit using log (agonist) vs response in GraphPad Prism Software. The plates were read on a BD FACSCanto II cytometer (BD Biosciences) and the data analysed using FlowJo.

[2] = target: T2, human PD-L1 expressed on cells (human, UniProt Q9NZQ7 19-290); assay: cell-based or functional assay
T2 sequence (Q9NZQ7 19-290 limits assumed): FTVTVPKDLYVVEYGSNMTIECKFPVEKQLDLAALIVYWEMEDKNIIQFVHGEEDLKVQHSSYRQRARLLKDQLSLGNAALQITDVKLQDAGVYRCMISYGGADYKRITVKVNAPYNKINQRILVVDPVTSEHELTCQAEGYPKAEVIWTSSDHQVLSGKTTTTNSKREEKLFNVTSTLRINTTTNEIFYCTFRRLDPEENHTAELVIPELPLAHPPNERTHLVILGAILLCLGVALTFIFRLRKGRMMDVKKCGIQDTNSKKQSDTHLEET

[3] = target: T3, human LAG-3 expressed on cells (human, UniProt P18627 23-525); assay: flow cytometry on HEK cells expressing human LAG-3
T3 construct: also called hLAG-3; DO11.10 hLAG-3
T3 sequence: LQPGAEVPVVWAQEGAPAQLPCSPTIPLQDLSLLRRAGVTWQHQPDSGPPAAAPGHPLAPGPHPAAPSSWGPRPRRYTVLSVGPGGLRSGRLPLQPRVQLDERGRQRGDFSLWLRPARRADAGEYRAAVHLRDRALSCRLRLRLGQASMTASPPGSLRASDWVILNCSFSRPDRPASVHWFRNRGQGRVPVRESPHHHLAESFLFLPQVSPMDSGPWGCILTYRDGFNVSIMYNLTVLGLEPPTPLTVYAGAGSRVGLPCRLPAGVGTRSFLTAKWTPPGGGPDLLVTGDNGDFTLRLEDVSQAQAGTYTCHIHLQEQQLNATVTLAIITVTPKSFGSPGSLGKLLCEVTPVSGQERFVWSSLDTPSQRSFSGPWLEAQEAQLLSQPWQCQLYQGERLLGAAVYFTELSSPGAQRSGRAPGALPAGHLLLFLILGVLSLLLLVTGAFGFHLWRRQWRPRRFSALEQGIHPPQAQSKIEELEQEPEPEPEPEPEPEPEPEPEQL
Method: as §1

[4] = target: T2, human PD-L1 expressed on cells; assay: flow cytometry on HEK cells expressing human PD-L1
Method: as §1, with “HEK cells” for “The affinity of the mAb² (all containing the LALA mutation) for cell expressed human or cynomolgus LAG-3 was determined using flow cytometry. HEK cells”, “or cynomolgus PD-L1 grown in” for “or cynomolgus LAG-3 grown in”, “control mAb) was incubated with” for “control mAb) were incubated with”, “were washed then cells” for “were washed and then cells”

EC50 [1]: 29.9 nM | fold better binding (EC50) than control antibody 25F7 [1]: ≥ 2 fold | Maximal IL2 release calculated as % ctrl (84G09 + 25F7) [2]: 65.9% | EC50 [3]: 3.18 nM | EC50 [4]: 3.19 nM and 3.51 nM
B1: anti-human LAG-3/PD-L1 mAb2 FS18-7-9/84G09 with LALA mutation (bispecific antibody, human IgG1, kappa, L234A L235A)
heavy: EVQLVESGGGLVQPGRSLRLSCAASGFTFDDYAMHWVRQTPGKGLEWVSGISWKSNIIGYADSVKGRFTISRDNAKNSLYLQMNSLRAEDTALYYCARDITGSGSYGWFDPWGQGTLVTVSSASTKGPSVFPLAPSSKSTSGGTAALGCLVKDYFPEPVTVSWNSGALTSGVHTFPAVLQSSGLYSLSSVVTVPSSSLGTQTYICNVNHKPSNTKVDKKVEPKSCDKTHTCPPCPAPEAAGGPSVFLFPPKPKDTLMISRTPEVTCVVVDVSHEDPEVKFNWYVDGVEVHNAKTKPREEQYNSTYRVVSVLTVLHQDWLNGKEYKCKVSNKALPAPIEKTISKAKGQPREPQVYTLPPSWDEPWGEDVSLTCLVKGFYPSDIAVEWESNGQPENNYKTTPPVLDSDGSFFLYSKLTVPYDRWVWPDEFSCSVMHEALHNHYTQKSLSLSPG
light: DIQMTQSPSSLSASVGDRVTITCRASQSISSYLNWYQQKPGKAPKPLIYVASSLQSGVPSSFSGSGSGTDFTLTISSLQPEDFATYYCQQSYSNPITFGQGTRLEIKRTVAAPSVFIFPPSDEQLKSGTASVVCLLNNFYPREAKVQWKVDNALQSGNSQESVTEQDSKDSTYSLSSTLTLSKADYEKHKVYACEVTHQGLSSPVTKSFNRGEC
notes: also called FS18-7-09/84G09LALA; FS18-7-9/84G09 LALA
